From patent US20260116996A1 (REGENTS OF THE UNIVERSITY OF MINNESOTA, published 2026)

T1: human serpinB3 (human, UniProt P29508 1-390)
T1 construct: Luminex antigen captured from a 293 cell lysate; not shown: V5-His tag of the pcDNA3.1 Directional V5-His-TOPO vector
T1 sequence (looked up): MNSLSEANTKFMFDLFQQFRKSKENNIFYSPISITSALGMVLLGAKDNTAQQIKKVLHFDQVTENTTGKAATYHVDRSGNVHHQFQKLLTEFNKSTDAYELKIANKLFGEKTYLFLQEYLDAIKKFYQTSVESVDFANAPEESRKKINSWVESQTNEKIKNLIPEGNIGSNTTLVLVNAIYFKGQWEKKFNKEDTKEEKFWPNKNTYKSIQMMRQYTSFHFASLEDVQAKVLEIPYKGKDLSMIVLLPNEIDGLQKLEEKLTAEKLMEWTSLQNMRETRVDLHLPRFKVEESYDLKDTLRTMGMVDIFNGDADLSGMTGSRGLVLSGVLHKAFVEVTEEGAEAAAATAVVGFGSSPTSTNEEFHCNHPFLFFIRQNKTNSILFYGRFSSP

T2: human serpinB10 (human, UniProt P48595 1-397)
T2 construct: Luminex antigen captured from a 293 cell lysate; not shown: V5-His tag of the pcDNA3.1 Directional V5-His-TOPO vector
T2 sequence (looked up): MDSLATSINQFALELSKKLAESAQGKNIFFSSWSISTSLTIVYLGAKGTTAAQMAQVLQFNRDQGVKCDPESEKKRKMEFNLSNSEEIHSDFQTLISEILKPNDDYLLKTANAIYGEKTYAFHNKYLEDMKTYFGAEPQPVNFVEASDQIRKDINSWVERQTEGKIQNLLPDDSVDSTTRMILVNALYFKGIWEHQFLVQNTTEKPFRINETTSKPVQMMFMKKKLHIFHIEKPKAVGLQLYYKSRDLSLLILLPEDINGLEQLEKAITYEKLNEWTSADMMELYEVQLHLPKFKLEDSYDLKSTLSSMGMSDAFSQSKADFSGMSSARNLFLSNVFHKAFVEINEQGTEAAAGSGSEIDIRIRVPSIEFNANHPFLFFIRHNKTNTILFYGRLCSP

T3: human serpinB6 (human, UniProt P35237 1-376)
T3 construct: Luminex antigen captured from a 293 cell lysate; not shown: V5-His tag of the pcDNA3.1 Directional V5-His-TOPO vector
T3 sequence (looked up): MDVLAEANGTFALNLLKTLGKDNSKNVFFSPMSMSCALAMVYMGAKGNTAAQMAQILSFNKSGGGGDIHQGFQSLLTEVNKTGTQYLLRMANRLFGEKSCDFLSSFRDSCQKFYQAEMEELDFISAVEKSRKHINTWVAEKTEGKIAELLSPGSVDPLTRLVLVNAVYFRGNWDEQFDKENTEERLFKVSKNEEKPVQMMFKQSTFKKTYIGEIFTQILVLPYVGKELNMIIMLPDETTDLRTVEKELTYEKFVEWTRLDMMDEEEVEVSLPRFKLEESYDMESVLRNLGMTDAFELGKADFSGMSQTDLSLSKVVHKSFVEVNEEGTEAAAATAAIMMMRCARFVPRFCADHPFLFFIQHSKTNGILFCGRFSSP

T4: human serpinB12 (human, UniProt Q96P63 1-405)
T4 construct: Luminex antigen captured from a 293 cell lysate; not shown: V5-His tag of the pcDNA3.1 Directional V5-His-TOPO vector
T4 sequence (looked up): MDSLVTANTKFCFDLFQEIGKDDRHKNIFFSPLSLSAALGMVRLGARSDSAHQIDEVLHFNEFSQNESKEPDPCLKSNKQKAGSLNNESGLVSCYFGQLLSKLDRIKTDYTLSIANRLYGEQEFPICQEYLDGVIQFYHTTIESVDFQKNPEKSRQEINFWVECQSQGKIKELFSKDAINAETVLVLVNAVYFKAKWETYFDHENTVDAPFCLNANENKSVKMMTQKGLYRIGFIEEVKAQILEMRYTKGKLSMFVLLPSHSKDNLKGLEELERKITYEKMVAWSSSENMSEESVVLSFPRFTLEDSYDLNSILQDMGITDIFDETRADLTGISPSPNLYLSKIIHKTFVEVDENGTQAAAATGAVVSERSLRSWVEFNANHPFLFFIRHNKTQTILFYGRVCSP

B1: recombinant fully human anti-serpinB13 antibody Clone 3 (antibody, human IgG1, kappa, V domains shown)
VH: QVQLQQWGAGLLKPSETLSLTCAVYGGSFSGYYWSWIRQPPGKGLEWIGEINHSGSTNYNPSLKSRVTISVDTSKNQFSLKLSSVTAADTAVYYCARRYCSGGSCYLVGTGSELDYWGQGTLVTVSS
VL: DIQMTQSPSTLSASVGDRVTITCRASQSISSWLAWYQQKPGKAPKLLIYKASSLEIGVPSRFSGSGYGTEFTLTISSLQPDDFATYYCLQYSTHSTFGQGTRVEIKR
notes: also called mAb3; CLONE3-H(m1) / CLONE3-L(m1)
B2: recombinant fully human anti-serpinB13 antibody Clone 1 (antibody, human IgG1, kappa, V domains shown)
VH: QVQLQESGGGVVQPGRSLRLSCAASGFTFSSYGMHWVRQAPGKGLEWVAVISYDGSNKYYADSVKGRFTISRDNSKNTLYLQMNSLRAEDTAVYYCARDLGAVIAVAGTSTPYNWFDPWGQGTLVTVSS
VL: DVVMTQSPLSLPVTPGEPASISCRSRQSLLHSNGHNYLGWYLQKPGQSPQLLIYLASIRASGIPDRFSGSGSGTDFTLKISRVEAEDVGVYYCMQALQTPYTFGQGTKLEIKR
notes: also called mAb1; mAbs1
B3: recombinant fully human anti-serpinB13 antibody Clone 2 (antibody, human IgG1, kappa, V domains shown)
VH: QMQLVQSGGGVVRPGGSLRLSCAASGFTFDDYGMSWVRQAPGKGLEWVSGINWNGGSTGYADSVKGRFTISRDNAKNSLYLQMNSLRAEDTALYYCARESSMTTVTTYLLREVGVGLDFDYWGQGTLVTVSS
VL: ETTLTQSPGTLSLSPGERATLSCRASQTVSGSYLAWYQQKPGQPPRLLIYGASSRATGIPDRFSGSGSGTDFTLTISRLEPEDFAVYYCQDYGSSRTFGQGTKVELKR
notes: also called mAb2; CLONE2-H(m1) / CLONE2-L(m1)

Each binder was assayed against T1, human serpinB3 (assay: ELISA cross-reactivity test / Luminex bead assay (FIG. 25)).
Method: (§1) Three recombinant human anti-serpinB13 antibodies were examined in the Luminex-based assay for binding to other clade B serpins, in order as indicated. The final concentration of each antibody was 1.0 μg/mL. The data are expressed as immunofluorescence intensity measured for binding to individual human serpin antigens after subtracting the background. The latter was determined as the average antibody binding to Luminex beads coated with Gfp and Scgn control antigens. Similar data were obtained for antigen binding of Fab fragments of these antibodies (data not shown).
(§2) Luminex assay. Luminex-based technology was used to measure serpinB13 AA in human samples. Initially, the Luminex beads were precoated with serpinB13, Gfp and Scgn, using precleared lysates of 293 cells that had been transfected with individual cDNAs. Biotinylated mouse anti-human K and 2 chain mAbs (BD Biosciences) (dilution 1:300) and streptavidin (Invitrogen) (dilution 1:200) were used as secondary reagents to measure human serum binding activity to individual antigens. The data were expressed as fluorescence intensity (F.I.) due to serum binding activity in the presence of beads precoated with serpinB13 and after subtracting the average F.I. due to serum binding activity in the presence of beads precoated with control proteins, Gfp and Scgn (e.g. F.I.^B13-[F.I.^GFP+F.I.^Segn]/2). The samples were evaluated based on the level of F.I. and the degree of inhibition of binding to serpin-B13 coated beads with soluble serpinB13 (2.5 μg/mL), compared with the bovine serum albumin (BSA). […] All samples were run blind on three independent occasions. Subjects with serum samples that produced a positive results three times were considered positive. Subjects with serum samples that produced a negative result on at least one occasion were considered negative.
(§3) To determine whether anti-serpin activity is specific, binding of three human recombinant antibodies to serpinB13 was examined for potential cross-reactivity with other clade B serpins.

| binding result | Binder |
| --- | --- |
| no binding (tested: 1.0 µg/mL) | B1 |
| no binding (tested: 1.0 µg/mL) | B2 |
| no binding (tested: 1.0 µg/mL) | B3 |

These binders were tested against T2, human serpinB10 in the same assay as above.
Method: as §1, §2, §3

| binding result | Binder |
| --- | --- |
| no binding (tested: 1.0 µg/mL) | B1 |
| no binding (tested: 1.0 µg/mL) | B2 |
| no binding (tested: 1.0 µg/mL) | B3 |

The binders below were run against T3, human serpinB6 (assay: Luminex bead assay, beads coated with human serpinB6, background (Gfp and Scgn beads) subtracted).
Method: (§4) The latter was determined as the average antibody binding to Luminex beads coated with Gfp and Scgn control antigens. Similar data were obtained for antigen binding of Fab fragments of these antibodies (data not shown).
as §2
(§5) To determine whether anti-serpin activity is specific, binding of three human recombinant antibodies to serpinB13 was examined for potential cross-reactivity with other clade B serpins. Binding to the beads conjugated with Gfp and Scgn was used to subtract the background and the assay was developed using the same reagents as those described above for measuring serpinB13 AA in serum samples.

| binding result | Binder |
| --- | --- |
| no binding (tested: 1.0 µg/mL) | B1 |
| no binding (tested: 1.0 µg/mL) | B2 |
| no binding (tested: 1.0 µg/mL) | B3 |

The binders below were run against T4, human serpinB12 (assay: Luminex bead assay, beads coated with human serpinB12, background (Gfp and Scgn beads) subtracted).
Method: as §4, §2, §5

| binding result | Binder |
| --- | --- |
| no binding (tested: 1.0 µg/mL) | B1 |
| no binding (tested: 1.0 µg/mL) | B2 |
| no binding (tested: 1.0 µg/mL) | B3 |
